Assay results: patent US20220290101A1

Target: L1 (DV1-GV4) soluble heterodimeric γδ TCR antigen, leucine zipper (LZ) format (human)
Test: DELFIA affinity ranking with 100 nM biotinylated L1

Chain of L1 (DV1-GV4) soluble heterodimeric γδ TCR antigen, leucine zipper (LZ) format (human) (main, as listed by the source): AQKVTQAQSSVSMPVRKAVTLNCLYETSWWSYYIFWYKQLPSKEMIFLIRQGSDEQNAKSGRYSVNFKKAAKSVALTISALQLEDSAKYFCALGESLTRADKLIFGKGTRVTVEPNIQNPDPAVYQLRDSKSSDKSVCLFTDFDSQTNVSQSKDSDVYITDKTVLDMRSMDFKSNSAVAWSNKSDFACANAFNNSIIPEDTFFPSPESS

Binder | 100 nM L1 (DELFIA signal) (fluorescence units)
1139_P01_E04 (scFv) (scFv) scFv: QVQLQQSGPGLVKPSQTLSLTCAISGDSVSSNSAAWNWIRQSPSRGLEWLGRTYYRSKWYNDYAVSVRSRITINPDTSKNQFSLQLNSVTPEDTAVYYCARSWNDAFDIWGQGTTVTVSSGGGGSGGGGSGGGASDIVMTQSPSTLSASIGDRVTITCRAGQSISTWLAWYQQKPGKAPKLLIYDASSLESGVPLRFSGSGSGTDFTLTISSLQPEDFATYYCQQSYSTPLTFGGGTKVEIK | 23800
1251_P02_G10 (scFv) (scFv) scFv: EVQLVESGGGLVQPGGSLRLSCAASGFTFSDYYMSWIRQAPGKGLEWVSYISSSGSTIYYADSVKGRFTISRDNAKNSLYLQMNSLRAEDTAVYYCARHSWNDAFDIWGRGTLVTVSSGGGGSGGGGSGGGASDIQMTQSPSSLSASVGDRVTITCRASQSISSHLNWYQQKPGKAPKLLIYAASSLQSGVPSRFSASGSGTDFTLTISSLQPEDFATYYCQQSYSTLLTFGGGTKVEIK | 17100
1245_P02_F07 (scFv) (scFv) scFv: QVQLQQSGPGLVKPSQTLSLTCVISGDSVSSNSAAWNWIRQSPSRGLEWLGRTYYRSKWYNDYAVSVKSRITINPDTSKNQFSLQLNSVTPEDTAVYYCARDYYYSMDVWGQGTMVTVSSGGGGSGGGGSGGGASDIQMTQSPSTLSASVGDRVTITCRASQSISSWLAWYQQKPGKAPKLLIYDASSLESGVPLRFSGSGSGTEFTLTISSLQPDDFATYYCQQSHSHPPTFGPGTKVDIK | 10400
1251_P02_C05 (scFv) (scFv) scFv: EVQLLESGGGLVQPGGSLRLSCAASGFTFSSYAMSWVRQAPGKGLEWVSAISGGGGTTYSSDSVKGRFTISRDNSKNTLYLQMNSLRAEDTAVYYCARDSGVAFDIWGQGTLVTVSSGGGGSGGGGSGGGASDIQMTQSPSFLSASVGDRVTITCRASQNIRTWLAWYQQKPGRAPKLLIYDASSLESGVPSRFSGSGSGTDFTLTISSLQPEDFATYYCQQFKRYPPTFGLGTKVEIK | 65300
1245_P01_E07 (scFv) (scFv) scFv: QVQLVESGGGLVKPGGSLRLSCAASGFTFSDYYMSWIRQAPGKGLEWVSYISSSGSTIYYADSVKGRFTISRDNAKNSLYLQMNSLRAEDTAVYYCARVDYADAFDIWGQGTLVTVSSGGGGSGGGGSGGGASDIQMTQSPSSLSASVGDRVTIACRAGQSIGTYLNWYQQKPGKAPKLLIYVASSLQSGVPSRFSGSGSGTEFTLTISSLQPEDFATYYCQQSYSTLLTFGRGTKVEIK | 163000
1141_P01_E01 (scFv) (scFv) scFv: QVQLVQSGAEVKKPGESLKISCKGSGYSFTSYWIGWVRQMPGKGLEWMGIIYPGDSDTRYSPSFQGQVTISADKSISTAYLQWSSLKASDTAMYYCARHQVDTRTADYWGQGTLVTVSSGGGGSGGGGSGGGASQSALTQPASVSGSPGQSVTISCTGTRSDVGGYNYVSWYQHHPGKAPKLMIYEVSNRPSGVSNRFSGSKSGNTASLTISGLQAEDEADYYCSSYTSTSTLVFGGGTKLTVL | 137000
1245_P01_G09 (scFv) (scFv) scFv: QVQLQQSGPGLVKPSQTLSLTCAISGDSVSSNSAAWNWIRQSPSRGLEWLGRTYYGSKWYNEYALSVKSRIIINPDTSKNQFSLQLNSVTPEDTAVYYCARDYYYSMDVWGQGTLVTVSSGGGGSGGGGSGGGASDIVMTQSPSTLSASIGDRVTITCRAGQSISTWLAWYQQKPGKAPKLLIYDASSLESGVPLRFSGSGSGTEFTLAISSLQPDDFATYYCQQSYSTPVTFGQGTKVEIK | 18400
1245_P02_G04 (scFv) (scFv) scFv: QVQLQQSGPGLVKPSQTLSLTCAISGDSVSSKSAAWNWIRQSPSRGLEWLGRTYYRSKWSTDYAASVKSRITINPDTSKNQLSLQLNSVTPEDTAVYYCARTWSGYVDVWGQGTLVTVSSGGGGSGGGGSGGGASDIQMTQSPPALSASVGDRVTITCRASQDINDWLAWYQHKPGKAPKLLIYDASSLESGVPSRFSGSGSGTEFTLTISSLQPDDFATYYCQQSYSTPQVTFGQGTRLEIK | 5900
1252_P01_C08 (scFv) (scFv) scFv: EVQLLESGGGLVQPGRSLRLSCAASGFTVSSNYMSWVRQAPGKGLEWVSVIYSGGSTYYADSVKGRFTISRDNSKNTLYLQMNSLRAEDTAVYYCASPIELGAFDIWGQGTLVTVSSGGGGSGGGGSGGGASSYELTQPPSVSVAPGKTARITCGGNNIGSQSVHWYQQKPGQAPMLVIYYDSDRPSGIPERFSGSNSGNTATLTISRVEAGDEADYYCQVWDSSSDHVVFGGGTKLTVL | 1980
